The values below come from patent publication US11214614B2, “LTBP complex-specific inhibitors of TGFβ and uses thereof” (Scholar Rock, Inc., priority 2019, dated 2022).

Where only a bound is given, the exact number is not on record here.

The conditions of series [1]: literature reports (Frazier et al. 2007; Stauber et al. 2014, chronic ≥3 months); cited from earlier work.
The conditions of series [2]: in vivo; cited from earlier work.
Series [3] is described as follows: Four-week toxicology study in rats. The format is in vivo, rat. From the text: Maximally tolerated dose (MTD): The term MTD generally refers to, in the context of safety/toxicology considerations, the highest amount of a test article (such as a TGFβ1 inhibitor) evaluated with no observed adverse effect level (NOAEL).
Therapeutic window: The term “therapeutic window” refers to a range of doses/concentrations that produces therapeutic response without causing significant/observable/unacceptable adverse effect (e.g., within adverse effects that are acceptable or tolerable) in subjects. Therapeutic window may be calculated as a ratio between […].
Toxicity: As used herein, the term “toxicity” or “toxicities” refers to unwanted in vivo effects in patients associated with a therapy administered to the patients, such as undesirable side effects and adverse events. “Tolerability” refers to a level of toxicities associated with a therapy or therapeutic regimen, which can be reasonably tolerated by patients, without discontinuing the therapy due to the toxicities (i.e., acceptable level of toxicities). Typically, toxicity/toxicology studies are carried out in one or more preclinical models prior to clinical development to assess safety profiles of a drug candidate (e.g., monoclonal antibody therapy). […]

Series [4] deals with T1, huLTBP1 proTGFβ1 (Homo sapiens, UniProt P01137+Q14766). As to the kind of experiment: SPR (Biacore 8K) monovalent binding kinetics of Fabs, biotinylated antigen captured. The note with it: Fab, huLTBP1 proTGFβ1; SR-AB42-HuFab average of five, SR-AB63-HuFab average of four replicate experiments. Further details: biotin (complex biotinylated). The essentials:
(§1)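 Biotinylated proTGFβ1 complexes (10 nM) captured on Biotin CAPture chip; Fabs injected at 10, 5, 2.5, 1.25, 0.625 nM (0 nM reference), 120 s contact, 900 s dissociation, multi-cycle with regeneration. HBS-EP+ pH 7.4; global 1:1 fit for ka, kd, KD.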

The target in a further series is T2, Murine LTBP3 proTGFβ1 (Mus musculus, UniProt P04202+Q61810).
T2 construct: biotin (complex biotinylated)
T2 sequence (P04202 30-390): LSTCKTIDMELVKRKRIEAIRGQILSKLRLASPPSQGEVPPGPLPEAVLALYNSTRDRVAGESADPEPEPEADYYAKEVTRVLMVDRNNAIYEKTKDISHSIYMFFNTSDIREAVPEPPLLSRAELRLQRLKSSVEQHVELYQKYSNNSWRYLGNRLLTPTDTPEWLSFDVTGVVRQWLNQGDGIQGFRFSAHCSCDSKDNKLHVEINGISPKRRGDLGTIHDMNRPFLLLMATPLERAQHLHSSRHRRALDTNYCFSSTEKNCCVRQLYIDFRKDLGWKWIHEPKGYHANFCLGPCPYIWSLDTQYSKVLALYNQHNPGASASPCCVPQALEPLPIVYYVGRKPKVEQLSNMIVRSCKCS
T2 sequence (Q61810 with tags, fused parts or gaps with the stated changes limits assumed): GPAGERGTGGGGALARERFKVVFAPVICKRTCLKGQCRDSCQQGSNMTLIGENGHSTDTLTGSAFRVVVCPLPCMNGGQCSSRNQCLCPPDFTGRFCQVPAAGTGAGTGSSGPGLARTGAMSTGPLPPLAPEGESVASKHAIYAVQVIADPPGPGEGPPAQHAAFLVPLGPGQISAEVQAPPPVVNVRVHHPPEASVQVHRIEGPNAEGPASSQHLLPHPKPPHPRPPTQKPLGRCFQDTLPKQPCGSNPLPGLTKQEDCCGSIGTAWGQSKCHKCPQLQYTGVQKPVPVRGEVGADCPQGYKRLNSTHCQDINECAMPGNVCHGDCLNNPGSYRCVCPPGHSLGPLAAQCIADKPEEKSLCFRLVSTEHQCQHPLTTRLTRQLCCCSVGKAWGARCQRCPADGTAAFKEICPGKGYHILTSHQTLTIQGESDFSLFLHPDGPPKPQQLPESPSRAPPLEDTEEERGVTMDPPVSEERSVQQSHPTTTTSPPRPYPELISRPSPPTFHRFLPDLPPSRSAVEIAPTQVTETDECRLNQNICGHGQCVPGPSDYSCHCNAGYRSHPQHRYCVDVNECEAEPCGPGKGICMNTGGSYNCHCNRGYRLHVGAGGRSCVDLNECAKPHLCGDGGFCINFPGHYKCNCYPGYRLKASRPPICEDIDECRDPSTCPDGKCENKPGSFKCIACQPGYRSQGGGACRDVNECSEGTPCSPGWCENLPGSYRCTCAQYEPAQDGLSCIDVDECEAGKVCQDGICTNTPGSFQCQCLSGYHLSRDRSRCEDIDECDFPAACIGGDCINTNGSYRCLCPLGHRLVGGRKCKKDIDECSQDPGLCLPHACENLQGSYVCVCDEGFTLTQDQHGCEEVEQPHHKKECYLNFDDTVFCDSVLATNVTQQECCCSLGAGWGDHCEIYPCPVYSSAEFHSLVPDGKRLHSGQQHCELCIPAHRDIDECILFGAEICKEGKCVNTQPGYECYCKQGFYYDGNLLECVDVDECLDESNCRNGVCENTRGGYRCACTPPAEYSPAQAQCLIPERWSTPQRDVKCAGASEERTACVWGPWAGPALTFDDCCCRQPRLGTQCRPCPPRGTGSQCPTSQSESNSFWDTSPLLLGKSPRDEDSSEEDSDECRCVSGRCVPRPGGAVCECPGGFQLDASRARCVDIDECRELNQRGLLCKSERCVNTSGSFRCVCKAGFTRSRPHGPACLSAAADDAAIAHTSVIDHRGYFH
The series is described as above. To be noted: Fab, Murine LTBP3 proTGFb1; average of two replicate experiments. Here is the method: (§2) A Biacore 8K system was employed to determine the monovalent binding affinity and the kinetic parameters for antigen binding of test antibodies. Association and dissociation kinetics of Fab fragments SR-AB42-HuFab, SR-AB63-HuFab and SR-AB43-HuFab to antigen complexes were measured, and resulting ka, kd and KD are provided below. Briefly, the binding kinetics were evaluated by surface plasmon resonance using Biacore 8K (GE Healthcare). Biotinylated capture antigens were immobilized to the chip (10 nM, ˜200 RU loading). A Biotin CAPture sensor chip was used to capture the biotinylated antigens. Fabs at 10, 5, 2.5, 1.25, and 0.6 nM concentrations were injected over the captured antigens. 0 nM was used as a reference. Affinities of LTBP antibodies to GARP and LRRC33 were confirmed using higher concentration of Fabs (100, 50, 25, 12.5, 6.25 nM). 0 nM was used as a reference. Multi-cycle kinetics was employed where each analyte concentration was injected in a separate cycle and the sensor chip surface was regenerated after each cycle. All the assays were carried out in freshly prepared 1×HBS-EP+buffer (10 mM HEPES, 150 mM NaCl, 3 mM EDTA, 0.05% Tween20, pH 7.4). Data were fit globally to a 1:1 binding model to obtain the kinetic parameters. The sensorgram for 0 nM analyte concentration was used as reference.
(§3) • 96 well plates—Greinerbio-one REF 650101 • Microplate Foils—GE Healthcare—CAT #28-9758-16 • Biotin CAPture Kit GE Healthcare product number 28920233 • Biacore running buffer—supplied as a 20× solution, diluted in Milli-Q water, TEKnova CAT #H8022 Method:
(§4) These experiments were performed using the Biacore 8K using the method “multi-cycle kinetics/affinity using Biotin CAPture kit.”
(§5) Data collection rate was set to 10 Hz and the Biotin CAPture step was performed for 300 seconds with a flow rate of 2 μL/minute. The Biotin CAPture reagent was used after a 1:5 dilution in 1× Biacore running buffer. Biotinylated ligands (the various complexes of TGFβ1) were utilized at a concentration of 10 nM and were immobilized to the sensor chip for 180 seconds with a flow rate of 10 μL/minute. The analytes, which are each of the Fabs, were tested at 10, 5, 2.5, 1.25, and 0.625 nM with a 0 nM control included. Analyte contact time was 120 seconds and the dissociation time was 900 seconds. The regeneration cycle utilized was 120 seconds with a flow rate of 10 μL/minute.
(§6) The evaluation method used was “multi-cycle affinity using capture” and a 1:1 binding model was used. […] Global fits were utilized for every KD determination.

Series [5] addresses T1, huLTBP1 proTGFβ1. Put plainly: Octet (BLI) binding, IgG captured on AHC tips, antigen at 100 nM. To be noted: Table 9, cycle 3, IgG1-agly. The essentials:
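Antibodies were captured on anti-human Fc biosensors at 1 μg/mL (~7 nM), to a maximum response of 1 nm. Antigen complex was run at a single 100 nM in 1× kinetics buffer, shaking at 1000 rpm. Association was 3 min and dissociation 3 min (5 min in later rounds), with KD from a local, full 1:1 fit.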
(In general: BLI is a label-free optical method that tracks binding on a fibre tip over time.)

Series [6] concerns male C57BL/6J mice on CDHFD (liver fibrosis). As to the kind of experiment: Choline-deficient high fat diet (CDHFD) model of mouse NASH, liver hydroxyproline content. It counts as in vivo. To be noted: 15 mg/kg twice a week i.p., weeks 4 through 12 of CDHFD. The text has this: The Choline deficient high fat diet (CDHFD) is an established diet-induced model of Non-Alcoholic steatohepatitis (NASH). In this model, male C57BL/6J mice are fed a choline deficient, 0.10% Methionine, high fat diet for 12 weeks. Three to six weeks after the start of the CDHFD, activation of pro-fibrotic processes can be detected through increased expression of α-smooth muscle actin (α-SMA) protein, a marker for activation of hepatic stellate cells, and elevated tissue hydroxyproline content reflecting increased collagen synthesis and deposition (Matsumoto et. al, Int J Exp Pathol. 2013 April; 94(2):93-103).
LTBP complex-specific antibodies were tested for their ability to inhibit and/or reduce the extent of liver fibrosis in mice in the CDHFD model as follows. An outline of the study is shown below in Table 21.
Animals in the test cohorts were on the CDHFD for the duration of the study. A separate cohort of mice (Group 1) were administered a regular chow diet as a study control. Antibodies SR-AB42 and SR-AB31 were administered to mice by intraperitoneal (i.p.) injection beginning at 4 weeks post start of the CDHFD. Animals were dosed at antibody test concentrations 15 mg/kg twice a week (i.e., 30 mg/kg/week) for a test duration of 8 weeks (i.e., weeks 4 through 12). […] Endpoint readout was hydroxyproline content. […]

The target in series [7] is T3, huLTBP3 proTGFβ1 (Homo sapiens, UniProt P01137+Q9NS15). As to the kind of experiment: Octet (BLI) binding, IgG captured on AHC tips, antigen at 100 nM. To be noted: Table 9, cycle 3, IgG1-agly. A digest of the protocol: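 Antibodies loaded at 1 μg/mL onto anti-human Fc sensors were exposed to each TGFβ1 complex at 100 nM in kinetics buffer. Association ran 3 min; dissociation was 3 min in one protocol and 5 min in another. KD came from a 1:1 fitting model.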
T3 sequence (P01137 30-390): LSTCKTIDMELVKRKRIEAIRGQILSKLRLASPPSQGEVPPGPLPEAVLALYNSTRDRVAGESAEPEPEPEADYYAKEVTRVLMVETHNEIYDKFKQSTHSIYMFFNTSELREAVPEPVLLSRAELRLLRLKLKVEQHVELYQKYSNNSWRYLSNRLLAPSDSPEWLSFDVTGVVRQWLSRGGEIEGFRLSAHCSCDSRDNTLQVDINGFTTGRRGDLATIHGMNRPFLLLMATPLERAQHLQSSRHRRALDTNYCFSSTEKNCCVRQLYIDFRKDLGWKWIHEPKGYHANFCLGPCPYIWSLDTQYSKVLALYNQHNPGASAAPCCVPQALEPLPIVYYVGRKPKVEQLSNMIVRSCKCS
T3 sequence (Q9NS15 44-1303): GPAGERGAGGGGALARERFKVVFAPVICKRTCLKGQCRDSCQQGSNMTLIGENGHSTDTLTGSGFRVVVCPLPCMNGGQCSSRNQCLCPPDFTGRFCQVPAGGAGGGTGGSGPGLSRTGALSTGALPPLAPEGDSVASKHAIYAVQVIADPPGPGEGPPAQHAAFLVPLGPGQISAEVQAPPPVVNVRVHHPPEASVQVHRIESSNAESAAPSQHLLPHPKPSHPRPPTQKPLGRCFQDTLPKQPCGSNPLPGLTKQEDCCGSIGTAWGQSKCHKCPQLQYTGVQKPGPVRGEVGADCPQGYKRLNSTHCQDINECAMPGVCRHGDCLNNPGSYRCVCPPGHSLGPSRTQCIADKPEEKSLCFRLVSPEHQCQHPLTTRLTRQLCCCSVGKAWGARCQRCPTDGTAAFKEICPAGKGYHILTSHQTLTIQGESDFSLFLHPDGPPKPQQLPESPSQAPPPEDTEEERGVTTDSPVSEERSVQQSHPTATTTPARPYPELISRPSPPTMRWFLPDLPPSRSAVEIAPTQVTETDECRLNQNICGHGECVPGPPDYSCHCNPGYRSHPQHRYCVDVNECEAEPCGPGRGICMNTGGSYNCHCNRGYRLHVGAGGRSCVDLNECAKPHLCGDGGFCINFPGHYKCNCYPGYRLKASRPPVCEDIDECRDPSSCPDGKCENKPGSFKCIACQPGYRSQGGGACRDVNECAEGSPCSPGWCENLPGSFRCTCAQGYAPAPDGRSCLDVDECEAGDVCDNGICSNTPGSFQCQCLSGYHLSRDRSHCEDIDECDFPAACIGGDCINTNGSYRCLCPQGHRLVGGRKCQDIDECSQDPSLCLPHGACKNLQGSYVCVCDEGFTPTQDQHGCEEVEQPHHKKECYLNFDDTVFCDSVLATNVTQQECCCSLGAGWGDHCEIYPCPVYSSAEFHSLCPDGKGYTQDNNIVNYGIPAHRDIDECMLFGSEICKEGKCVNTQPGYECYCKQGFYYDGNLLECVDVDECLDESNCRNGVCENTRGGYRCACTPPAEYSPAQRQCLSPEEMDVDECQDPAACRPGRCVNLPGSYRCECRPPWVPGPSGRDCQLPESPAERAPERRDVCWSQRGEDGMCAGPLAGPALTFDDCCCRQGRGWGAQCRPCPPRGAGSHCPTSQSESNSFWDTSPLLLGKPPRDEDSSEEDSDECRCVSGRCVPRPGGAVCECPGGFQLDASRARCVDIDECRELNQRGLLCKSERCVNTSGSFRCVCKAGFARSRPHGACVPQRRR

Another series addresses huGARP proTGFβ1 (Homo sapiens, UniProt P01137). Put plainly: SPR (Biacore 8K) monovalent binding kinetics of Fabs, biotinylated antigen captured. Also noted: biotin (complex biotinylated). The note with it: Fab, huGARP proTGFb1. A digest of the protocol: as §1
A general note: SPR reads the build-up and loss of mass on a sensor chip optically.

In series [8] the target is T3, huLTBP3 proTGFβ1. The series is described as above. The note with it: Fab, huLTBP3 proTGFb1. Further details: biotin (complex biotinylated). The essentials:
as §1

The next series addresses huLRRC33 proTGFβ1 (Homo sapiens, UniProt P01137). The series is described as above. To be noted: Fab, huLRRC33 proTGFb1. Further details: biotin (complex biotinylated); modified human kappa light chain signal peptide (N); Histidine tag (C). The protocol: as §2, §3, §4, §5, §6

T1 sequence (P01137 30-390): as the sequence (P01137 30-390) above
T1 sequence (Q14766 347-1721 limits assumed): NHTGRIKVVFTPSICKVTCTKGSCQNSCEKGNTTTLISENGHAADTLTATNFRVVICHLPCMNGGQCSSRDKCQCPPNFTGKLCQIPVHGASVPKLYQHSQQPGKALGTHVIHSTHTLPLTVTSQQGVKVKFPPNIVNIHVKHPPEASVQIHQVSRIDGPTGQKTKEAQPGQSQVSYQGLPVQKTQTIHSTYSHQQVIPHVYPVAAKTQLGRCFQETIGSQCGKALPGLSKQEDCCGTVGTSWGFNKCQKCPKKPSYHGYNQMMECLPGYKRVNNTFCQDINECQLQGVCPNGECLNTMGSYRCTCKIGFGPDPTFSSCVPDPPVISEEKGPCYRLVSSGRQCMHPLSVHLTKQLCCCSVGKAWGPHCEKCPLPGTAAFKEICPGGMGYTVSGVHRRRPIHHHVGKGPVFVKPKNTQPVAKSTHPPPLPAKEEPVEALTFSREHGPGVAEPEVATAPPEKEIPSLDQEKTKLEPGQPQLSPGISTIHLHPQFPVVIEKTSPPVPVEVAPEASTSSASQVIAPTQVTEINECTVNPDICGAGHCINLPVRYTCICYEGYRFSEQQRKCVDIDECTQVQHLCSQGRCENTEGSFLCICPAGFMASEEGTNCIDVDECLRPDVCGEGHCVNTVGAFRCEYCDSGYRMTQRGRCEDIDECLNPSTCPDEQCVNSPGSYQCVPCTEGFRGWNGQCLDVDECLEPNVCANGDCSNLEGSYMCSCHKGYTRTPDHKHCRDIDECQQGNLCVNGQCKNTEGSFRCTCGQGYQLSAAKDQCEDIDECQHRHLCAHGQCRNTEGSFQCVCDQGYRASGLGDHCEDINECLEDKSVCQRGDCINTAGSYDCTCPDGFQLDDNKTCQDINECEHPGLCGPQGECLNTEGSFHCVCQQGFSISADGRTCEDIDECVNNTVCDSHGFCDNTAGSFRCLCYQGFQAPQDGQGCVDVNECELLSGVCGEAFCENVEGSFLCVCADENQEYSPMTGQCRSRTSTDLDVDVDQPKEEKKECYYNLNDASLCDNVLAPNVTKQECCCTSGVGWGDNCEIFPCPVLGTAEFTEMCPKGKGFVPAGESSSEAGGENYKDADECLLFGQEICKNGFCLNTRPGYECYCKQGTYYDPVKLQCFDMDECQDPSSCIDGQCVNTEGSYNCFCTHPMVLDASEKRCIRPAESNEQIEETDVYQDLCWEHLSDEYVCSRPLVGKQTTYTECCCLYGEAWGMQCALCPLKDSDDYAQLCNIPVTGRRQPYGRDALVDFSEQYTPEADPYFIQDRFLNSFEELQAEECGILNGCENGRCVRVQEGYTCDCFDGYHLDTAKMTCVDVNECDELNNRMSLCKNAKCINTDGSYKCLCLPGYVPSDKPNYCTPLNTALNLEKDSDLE

As to `O=C(NC1CCOCC1)c1ccc(-c2cc(-c3c[nH]nc3-c3ccccn3)ccn2)cc1` [GW788388], the Toxicity in rats result in series [1] is reported as “induced physeal dysplasia in rats”.

With “GC1008: a “pan” TGFβ antibody capable of neutralizing all human isoforms of TGFβ”, in series [2], the “Exposure, DN Cmax, Human” value was “DN Cmax ~(350 ng/mL) (ng/mL) mg” and the “Exposure, Half-life, Human” value was “Half-life: 21.7 d”.

B1: Ab2: TGFβ1 inhibitor test article of a four-week rat toxicology study; b152 gives same data for a context-independent TGFβ1 inhibitor antibody (antibody, V domains shown)
VH: QVQLVQSGAEVKKPGASVKVSCKASGYTFTSYGISWVRQAPGQGLEWMGWISAYNGNTNYAQKLQGRVTMTTDTSTSTAYMELRSLRSDDTAVYYCARAPLGNFDSWGQGTMVTVSS
VL: NFMLTQPHSVSESPGKTVTISCTRSSGSIASNYVQWYQQRPGSSPTTVIYEDNQRPSGVPDRFSGSIDSSSNSASLTISGLKTEDEADYYCQSYDSSNHPVVFGGGTKLTVL
Regarding B1, the MTD in [3] is reported as greater than 100 mg/kg. Moreover, in [3] (highest dose evaluated), the no observed adverse effect level (NOAEL) (commonly the highest dose or exposure tested at which no adverse effect was seen) is on record as 100 mg/kg.

B2: SR-AB43-HuFab: human Fab fragment of SR-AB43 used in SPR (antibody, V domains shown)
VH: QVQLVESGGGVVQPGRSLRLSCAASGFTFRSYVMHWVRQAPGKGLEWVAVISHEGSLKYYADSVKGRFTISRDNSKNTLYLQMNSLRAEDTAVYYCARPRIAARRGGFGYWGQGTLVTVSS
VL: NFMLTQPHSVSESPGKTVTISCTRSSGNIDYNYVQWYQQRPGSSPTTVIYEDNVRPSGVPDRFSGSIDSSSNSASLTISGLKTEDEADYYCQSYDSDNQRVVFGGGTKLTVL
In the series with huLTBP1 proTGFβ1 [4], B2 yielded a ka of 1.03e+06 M⁻¹ s⁻¹ and a kd of 0.000284 s⁻¹. In the series with Murine LTBP3 proTGFβ1, the ka was found to be 1.82e+09 M⁻¹ s⁻¹ and the kd stood at 6.37 s⁻¹.

B3: SR-AB31: cycle 3 light chain-optimized antibody, lineage SR-AB22; CDRs SEQ ID NO: 124-129 (antibody, V domains shown)
VH: QVQLVESGGGVVQPGRSLRLSCAASGFTFRSYVMHWVRQAPGKGLEWVAVISHEGSLKYYADSVKGRFTISRDNSKNTLYLQMNSLRAEDTAVYYCAVPRIAARRGGFGYWGQGTLVTVSS
VL: NFMLTQPHSVSESPGKTVTISCTRSSGNIDNNYVQWYQQRPGSSPTTVIYEDNQRPSGVPDRFSGSIDSSSNSASLTISGLKTEDEADYYCQSYDFNNQGVVFGGGTKLTVL
Take B3: the “Hu LTBP1-proTGFβ1 Kon” value with huLTBP1 proTGFβ1 [5] (1:1 fit) was found to be 240000 M⁻¹ s⁻¹. Also, the “Hu LTBP1-proTGFβ1 Koff” value with huLTBP1 proTGFβ1 [5] (5-minute dissociation) is 9.89e-05 s⁻¹. The “Hydroxyproline (HYP) in liver tissue” value in series [6] is “inhibited the increase in HYP”. The “Hu LTBP3-proTGFβ1 Kon” value with huLTBP3 proTGFβ1 [7] (1:1 fit) was 308000 M⁻¹ s⁻¹. Besides, the “Hu LTBP3-proTGFβ1 Koff” value with huLTBP3 proTGFβ1 [7] (5-minute dissociation) worked out at 6.81e-05 s⁻¹.

B4: SR-AB42-HuFab: human Fab fragment of SR-AB42 used in SPR (antibody, V domains shown)
VH: QVQLVESGGGVVQPGRSLRLSCAASGFTFRSYVMHWVRQAPGKGLEWVAVISHEGSLKYYADSVKGRFTISRDNSKNTLYLQMNSLRAEDTAVYYCARPRIAARRGGFGYWGQGTLVTVSS
VL: NFMLTQPHSVSESPGKTVTISCTRSSGNIDNNYVQWYQQRPGSSPTTVIYEDNQRPSGVPDRFSGSIDSSSNSASLTISGLKTEDEADYYCQSYDYDTQGVVFGGGTKLTVL
Take B4: the ka with huGARP proTGFβ1 was found to be 155000 M⁻¹ s⁻¹; with huLTBP1 proTGFβ1 [4], 543000 M⁻¹ s⁻¹; with huLTBP3 proTGFβ1 [8] it was 405000 M⁻¹ s⁻¹; with huLRRC33 proTGFβ1, 80900 M⁻¹ s⁻¹; with Murine LTBP3 proTGFβ1 it was 1.23e+08 M⁻¹ s⁻¹. The kd in the series with huGARP proTGFβ1 is 0.00604 s⁻¹; with huLTBP1 proTGFβ1 [4], 0.000105 s⁻¹; in the series with huLTBP3 proTGFβ1 [8], 0.000142 s⁻¹; in the series with huLRRC33 proTGFβ1, 0.00353 s⁻¹; with Murine LTBP3 proTGFβ1, 0.397 s⁻¹.
